Where a chain is given by its changes, count along the chain named.

The chains are these.
T1: human IL-18BP (interleukin-18 binding protein, isoform A) (human, UniProt O95998 31-194)
T1 sequence: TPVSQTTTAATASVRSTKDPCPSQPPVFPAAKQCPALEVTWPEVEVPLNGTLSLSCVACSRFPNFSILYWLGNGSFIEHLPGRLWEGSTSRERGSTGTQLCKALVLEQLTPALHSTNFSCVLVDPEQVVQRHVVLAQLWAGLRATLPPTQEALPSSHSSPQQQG

T2: cynomolgus IL-18BP (cynomolgus monkey)
T2 construct: Generated in-house; also called cyIL-18BP; cyno IL-18BP
T2 chain: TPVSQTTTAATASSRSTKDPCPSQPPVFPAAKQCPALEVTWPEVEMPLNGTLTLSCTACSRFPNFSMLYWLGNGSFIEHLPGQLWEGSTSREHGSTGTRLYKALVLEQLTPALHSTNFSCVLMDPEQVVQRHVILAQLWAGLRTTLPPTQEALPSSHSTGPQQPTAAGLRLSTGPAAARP

B1: SA302a (antibody, human IgG1, V domains shown)
VH: QVQLQESGPGLVKPSQTLSLTCTVSGYSITSDYNAHWIRQPPGKGLEWIGYIHYSGSTNYNPSLKSRVTISRDTSKNQFSLKLSSVTAADTAVYYCARNYGSIYVNYFDYWGQGTLVTVSS
VL: EIVLTQSPATLSLSPGERATLSCSASSSVSYMYWYQQKPGQAPRPLIYRTSNLASGIPARFSGSGSGTDFTLTISSLEPEDFAVYYCQQYHSYPTFGGGTKVEIK
notes: humanized; human IgG1 (suffix a), kappa
B2: SA338a (antibody, human IgG1, V domains shown)
VH: B1 VH with S31Q, S57Q, N59Y, Y100F
VL: B1 VL with Q89L
notes: as for B1
B3: SA307a (antibody, human IgG1, V domains shown)
VH: B1 VH with S31Q
VL: B1 VL
notes: as for B1
B4: SA322a (antibody, human IgG1, V domains shown)
VH: B1 VH with S31Q, S57Q
VL: B1 VL
notes: as for B1
B5: SA337a (antibody, human IgG1, V domains shown)
VH: B1 VH with S31Q, S57Q
VL: B1 VL with Q89L
notes: as for B1
B6: SA309a (antibody, human IgG1, V domains shown)
VH: B1 VH with S57Q
VL: B1 VL
notes: as for B1
B7: SA303a (antibody, human IgG1, V domains shown)
VH: B1 VH with Y100F
VL: B1 VL
notes: as for B1
B8: SA320a (antibody, human IgG1, V domains shown)
VH: B1 VH with S31Q, S57Q, N59Y, Y100F
VL: B1 VL
notes: as for B1
B9: SA310a (antibody, human IgG1, V domains shown)
VH: B1 VH with N59M
VL: B1 VL
notes: as for B1
B10: SA33a (antibody, human IgG1, V domains shown)
VH: QVQLQQSGAELVRPGVSVKISCKGSGYTFTDYAMHWVKQSHAKSLEWIGVISTYYGDASYNQKFKGKATMTVDKSSSTAYMELARLTSEDSAIYYCARERDYYGSRLFDYWGQGTTLTVSS
VL: EIVLTQSPTTMAASPGEKITITCSANSSISSNYLHWYQQKPGFSPKLLIYGTSNLASGVPARFSGSGSGTSYSLTIGTMEAEDVATYYCQQGSSIPYTFGGGTKLEIK
notes: murine variable regions on human IgG1 kappa constant regions
B11: SA35a (antibody, human IgG1, V domains shown)
VH: QVQLQQSGAELVRPGVSVKISCKGSGYTFTDYPMHWVKQSHAKSLEWIGVISTYYGDASYNQKFKGKATMTVDKSSSTAYMELARLTSEDSAIYYCARWRGSFDYWGQGTTLTVSS
VL: ENVLTQSPAIMSASPGEKVTMTCRASSSVSSSYLHWYQQKSGASPKLWIYSTSNLASGVPARFSGSGSGTSYSLTISSVEAEDAATYYCQQYSGYHTFGGGTKLEIK
notes: as for B10
B12: SA32a (antibody, human IgG1, V domains shown)
VH: EVQLQQSGPELVKTGASVKISCKASGYSFTGYYMHWVKQSHGKSLEWIGYISCYNGATSYNQKFKGKATFTVDTSSSTAYMQFNSLTSEDSAVYYCAITLHYAMDYWGQGTSVAS
VL: DIVMTQAAFSNPVTLGTSASISCRSSKSLLHSNGITYLYWYLQKPGQSPQLLIYQMSNLASGVPDRFSSSGSGTDFTLRISRVEAEDVGVYYCAQNLELPWTFGGGTKLEIK
notes: as for B10
B13: SA31a (antibody, human IgG1, V domains shown)
VH: QVQLQQPGSELVRPGASVKLSCKASGYTFTSYWMHWVKQRPGQGLEWIGNIYPGSGNTIYDEKFKSKATLTVDTSSSTAYMQLSSLTSEDSAVYYCTRWDNWEGYYFDYWGQGTTLTVSS
VL: B12 VL
notes: as for B10
B14: SA34a (antibody, human IgG1, V domains shown)
VH: QVQLQQSGAELARPGASVKLSCKASGYTFTDYYINWVKQRTGQGLEWIGEIYPGSGNTYYNEKFKGKATLTADKSSSTAYMQLSSLTSEDSAVYFCARGYYGRFAYWGQGTLVTVSA
VL: B12 VL with A94D, W101F, G105S
notes: as for B10

Sequence of hypo-IL-18 (IL-18 tethered to IL-18BP by a flexible linker with TEV site, 6xHis) (human) (chain, as listed by the source limits assumed): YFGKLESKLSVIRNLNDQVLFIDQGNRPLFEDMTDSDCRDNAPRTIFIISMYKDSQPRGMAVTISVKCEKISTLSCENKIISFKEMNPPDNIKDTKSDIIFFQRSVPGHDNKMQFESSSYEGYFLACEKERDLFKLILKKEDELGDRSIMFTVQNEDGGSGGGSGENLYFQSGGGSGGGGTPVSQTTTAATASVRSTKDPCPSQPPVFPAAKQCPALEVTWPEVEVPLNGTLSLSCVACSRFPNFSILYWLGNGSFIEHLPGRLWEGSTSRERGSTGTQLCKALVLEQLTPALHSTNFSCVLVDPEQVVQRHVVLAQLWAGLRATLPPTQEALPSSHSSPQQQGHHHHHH

The first assay concerns the target T1, human IL-18BP (interleukin-18 binding …). Nature of the assay: cell-based or functional assay.
For B1, the “EC50 in PBMC Assay 1 (endogenous IL-18BP), IFNγ” value turned out to be 15 nM and the “EC50 in PBMC Assay 2 (precomplexed IL-18BP), IFNγ” value came out at 2.15 nM.
Consider B2, for which the “EC50 in PBMC Assay 1 (endogenous IL-18BP), IFNγ” value was found to be 0.5 nM and the “EC50 in PBMC Assay 2 (precomplexed IL-18BP), IFNγ” value was found to be 0.33 nM.
On to B3, for which the “EC50 in PBMC Assay 1 (endogenous IL-18BP), IFNγ” value was 1.6 nM and the “EC50 in PBMC Assay 2 (precomplexed IL-18BP), IFNγ” value was determined as 1.47 nM.
Regarding B4, the “EC50 in PBMC Assay 1 (endogenous IL-18BP), IFNγ” value turned out to be 0.8 nM and the “EC50 in PBMC Assay 2 (precomplexed IL-18BP), IFNγ” value was found to be 0.53 nM.
B5: the “EC50 in PBMC Assay 1 (endogenous IL-18BP), IFNγ” value turned out to be 1 nM and the “EC50 in PBMC Assay 2 (precomplexed IL-18BP), IFNγ” value is 0.58 nM.
As for B6, the “EC50 in PBMC Assay 1 (endogenous IL-18BP), IFNγ” value was found to be 2.8 nM and the “EC50 in PBMC Assay 2 (precomplexed IL-18BP), IFNγ” value came to 0.62 nM.
For B7, the “EC50 in PBMC Assay 1 (endogenous IL-18BP), IFNγ” value worked out at 1.6 nM and the “EC50 in PBMC Assay 2 (precomplexed IL-18BP), IFNγ” value worked out at 2.75 nM.
Regarding B8, the “EC50 in PBMC Assay 1 (endogenous IL-18BP), IFNγ” value is 0.3 nM and the “EC50 in PBMC Assay 2 (precomplexed IL-18BP), IFNγ” value was 0.25 nM.
As for B9, the “EC50 in PBMC Assay 1 (endogenous IL-18BP), IFNγ” value came out at 1.9 nM and the “EC50 in PBMC Assay 2 (precomplexed IL-18BP), IFNγ” value was found to be 0.94 nM.

For the next assay the target is unchanged. Nature of the assay: BLI, affinity column of Table E8. (Biolayer interferometry detects binding as a change in optical thickness at a sensor tip.)
As usually defined, the Kd is the free concentration of one partner at which half of the binding sites on the other are occupied at equilibrium, for simple one-to-one binding. High values mean a looser complex, low ones a tighter complex. Regarding B1, the Kd worked out at 0.345 nM.
The molecule B2 yielded a Kd of 0.032 nM.
Regarding B3, the affinity, expressed as Kd, was 0.054 nM.
In turn, B4 gave a Kd of 0.054 nM.
As for B5, the affinity, expressed as Kd, was 0.047 nM.
Still for that read-out and setting: in the case of B6 it was 0.061 nM; in that of B7, 0.182 nM.
The molecule B8 displayed a Kd of 0.052 nM.
Still for that read-out and setting: in the case of B9 it was 0.175 nM.

The next assay has the same target. The assay can be described thus: cell-based or functional assay. The source holds these as a separate data set.
On to B10, for which the “EC50 (nM), KG-1 Assay (IFNγ)” value turned out to be 129 nM.
B11: the “EC50 (nM), KG-1 Assay (IFNγ)” value came to 103 nM.
Consider B12, for which the “EC50 (nM), KG-1 Assay (IFNγ)” value amounted to 109 nM.
Turning to B13, the “EC50 (nM), KG-1 Assay (IFNγ)” value amounted to 185 nM.
B14: the “EC50 (nM), KG-1 Assay (IFNγ)” value is 51 nM.

The next assay addresses hypo-IL-18 (IL-18 tethered to IL-18BP by a flexible linker with TEV site, 6xHis) (human). Nature of the assay: BLI.
On to B10, for which the binding result was “no binding”.
In the case of B11, the binding result was “no binding”.
On the same count and under the same terms, in the case of B12 it was “no binding”; in that of B13, “no binding”.
Regarding B14, the binding result is reported as “no binding”.

The next assay has as its target T1, human IL-18BP (interleukin-18 binding …). The assay can be described thus: cell-based or functional assay. This is another data set of the same source.
With B10, the “EC50 (nM), HEK293 IL-18 Reporter Assay (SEAP)” value (“EC50 (nM) … (SEAP)” for short) is 0.36 nM.
Consider B11, for which the “EC50 (nM) … (SEAP)” value turned out to be 21 nM.
The same measure, in the same setting: in the case of B12 it was 6.82 nM; in that of B13, 2.62 nM.
With B14, the “EC50 (nM) … (SEAP)” value stood at 5.02 nM.

A further assay shares this target. The assay can be described thus: BLI (Octet), mAb on AHC biosensor.
The molecule B10 showed a Kd of 3 nM.
The molecule B11 displayed a Kd of 11 nM.
Still for that read-out and setting: in the case of B12 it was 17 nM.
Molecule B13 had a Kd of 3 nM.
B14 yielded a Kd of 18 nM.

In a further assay the target is T2, cynomolgus IL-18BP. Nature of the assay: BLI (Octet), mAb on AHC biosensor.
Turning to B10, the Kd worked out at 16 nM.
For the molecule B11, the Kd was 13 nM.
Molecule B12 had a dissociation constant (Kd) of 19 nM.
Take B13: binding was put at a Kd of 5 nM.
On the same count and under the same terms, next, B14: 12 nM.

A further assay has as its target T1, human IL-18BP (interleukin-18 binding …). Nature of the assay: BLI (Octet), mAb on AHC biosensor. This is another data set of the same source.
In turn, B1 yielded a Kd of 0.345 nM.
As for B2, the Kd came to 0.032 nM.
On to B3, for which binding was characterised by a dissociation constant (Kd) of 0.054 nM.
As to B4, the Kd is 0.054 nM.
The molecule B5 gave a Kd of 0.047 nM.
Still for that read-out and setting: next, B6: 0.061 nM; B7: 0.182 nM.
Consider B8, for which the Kd was 0.052 nM.
Molecule B9 returned a Kd of 0.175 nM.

The target in the next assay is T2, cynomolgus IL-18BP. Nature of the assay: BLI (Octet), mAb on AHC biosensor. The source holds these as a separate data set.
Consider B1, for which the Kd was found to be 0.156 nM.
Same read-out and setting: next, B2: 0.024 nM.
B3 registered a Kd of 0.027 nM.
Molecule B4 registered a Kd of 0.02 nM.
Turning to B5, the Kd was 0.042 nM.
The molecule B6 gave a dissociation constant (Kd) of 0.024 nM.
On the same count and under the same terms, next, B7: 0.077 nM; B8: 0.02 nM; B9: 0.028 nM.

A further assay addresses T2, cynomolgus IL-18BP. Nature of the assay: ratio of BLI KDs, cyno against human IL-18BP.
For B1, the Cyno/human was found to be 0.45 ratio.
Turning to B2, the Cyno/human turned out to be 0.67 ratio.
With B3, the Cyno/human was found to be 0.5 ratio.
Still for that read-out and setting: next, B4: 0.37 ratio; B5: 0.89 ratio; B6: 0.39 ratio.
As for B7, the Cyno/human was determined as 0.42 ratio.
For the molecule B8, the Cyno/human was 0.38 ratio.
For B9, the Cyno/human worked out at 0.16 ratio.

These data come from patent US20250368745A1 (published 2025).
